Results from the supplement of paper PMC12042874.
± gives the uncertainty stated by the source.

Assay: amyloid nucleation score (Sup35N fusion, yeast selection) (log enrichment); library NNK1; higher = more nucleation; inactive = no reads after selection
Method in brief: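 Sup35N fusions to peptides of 20 random codons were expressed in psi-negative yeast, induced 24 hours with 100 μM copper sulfate, and grown 7 days at 30°C on medium lacking adenine and uracil. Input and output plasmid inserts were sequenced by Illumina. The nucleation score is the DiMSum log enrichment of output over input reads, centred on the mode score of non-aggregating sequences. Sequences with under 100 input reads were excluded.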

Substance	amyloid nucleation score
GLWKGLRHSSSKWERPHIRQ	1.1 ± 0.62
LNQRWCCFTISALR	7.702 ± 0.076
VDLPFMLAKVR	0.856 ± 0.71
HSRYWSNIHSRWLTGRVRWG	-0.28 ± 0.51
FSSGVILSGRRRSLK	-0.437 ± 0.49
IVWSYSRTIYLNFI	0.873 ± 0.68
MGHVLGVYKSP	1.2 ± 0.46
ASPVLFKWICPIYTS	2.87 ± 0.15
SWNNLIVVRSKVDGCAVSAG	0.504 ± 0.73
EENLSSPWMPMVPIDTINWF	1.67 ± 0.52
FVFKIWQSD	0.116 ± 0.58
RETIPCVEVFTHRSLDFL	1.15 ± 0.83
NREVYKMLLGCFSIHISCNR	inactive
RFEWLCGVFSGALPKGAWLK	-0.144 ± 0.37
RIHRVHRKF	-0.33 ± 0.38
NCKNVYCFKYASGIGERAFY	0.091 ± 0.42
FDVFMRYG	inactive
EFRKEG	1.02 ± 0.52
YASGLNSHDELVFYFYNRER	inactive
SFYYIWRGLVTSED	-0.779 ± 0.8
YVSAGWVYRSYFGIIFILRN	-0.873 ± 1.1
ILSRVCVRGCIHLPSRMCRS	inactive
MERTWFG	0.276 ± 0.3
LLVRNMSNVVPLMFSIPSNV	0.458 ± 0.65
QMKVISLVRHE	inactive

Substance	amyloid nucleation score
LNNAKCKLVSIFHLGVWVGM	-1.12 ± 0.96
GSFRMVSMLSGISWARVARF	3.04 ± 0.18
FKESLGFMFMHDMSWDGLLV	0.224 ± 0.7
VQCVHLSNME	0.105 ± 0.72
SGIYGCSGRQDIKSKNYGSR	1.12 ± 0.56
GCTSGGLCIGPPRSV	0.906 ± 1
PSFNLNFVRINLQDGNMRLS	7.038 ± 0.048
QLLSRLGIS	-0.641 ± 1.4
CNVGLKVYLADISSGSVCYL	4.39 ± 0.075
FLFLYNVGVVIRSGYMFLRS	0.088 ± 0.93
ENIDVENQLVYLFKICFGSM	3.09 ± 0.12
ANYFQSICQFDVDRIKLNSA	inactive
GRSGCCWMS	2.77 ± 0.19
ICNQCNNSGTQLYCIKLYMR	6.099 ± 0.045
VKGQHFQLKIVRRLRTFRHH	3.79 ± 0.066
MLIRVISDVLPG	0.224 ± 0.5
TVIGSSRGAPLIIKSGFIIE	4.25 ± 0.056
TTFFDLT	0.713 ± 0.74
PNDSYNGL	-0.421 ± 0.46
FFVFSRAHCAQSSLNKKYL	0.888 ± 0.3
SFESVFRHCRVRCCYGKIRQ	0.685 ± 0.31
GIKCTRFWQVPNRGDRV	-0.813 ± 0.48
IFYLTSVFVFSLLKFMTCER	-1.17 ± 2.4
RVSSHGLILHFDKDNSMIAV	0.936 ± 0.61
FAGFTGGVLYGVWRLLGSCR	-0.022 ± 0.59

Substance	amyloid nucleation score
VEYSVTCFLNYY	5.71 ± 0.059
RFFGFS	-0.63 ± 1.1
MIFSHETSRVIGDPWGPWN	0.056 ± 0.88
QSWHEWDM	inactive
TFFYKDSDRDSCMGMLLIVC	0.295 ± 0.44
NSIPLDLSNTLLLCARC	-0.02 ± 0.49
MLVYYNDKSVFHRFVLLRN	0.644 ± 0.85
IFMSRWG	2.78 ± 0.14
VIQEPKFMYLQLFVGLPCVS	4.51 ± 0.09
SLVDGSHNNFRGWVPIVVQG	-0.079 ± 0.99
VSVFNAQFIDRRGCR	5.16 ± 0.063
FEYFCRRDRLTK	-0.209 ± 0.25
FQHLNMVTAFSDSRGIPYML	1.05 ± 0.38
WTTSVSL	-0.346 ± 0.84
LVCFGFSNNCCELCCYYSNL	0.765 ± 0.61
RDPYFRQCTEKQI	1 ± 0.85
CRSSGADSRLLNIVKPCTLP	-0.616 ± 0.33
EKNCRADATV	-1.96 ± 1.8
FIATNLSLYGFVYWLLSTTT	0.414 ± 0.42
RYLVALFSMYKWYGVEKDWK	0.954 ± 0.54
HSSKYRRFVSTTVTIVSVSR	4.01 ± 0.09
VNGTG	-0.252 ± 0.97
KIRVYSRCCFLSG	5.63 ± 0.071
VVWWGEQHGLYSYFGHGIGI	0.968 ± 0.63
AFRQVRKIVQAGTGGVQ	-0.324 ± 0.58

Substance	amyloid nucleation score
FQYTACIN	1.08 ± 0.57
QGCMATYSGVGDACWGVRVS	0.678 ± 0.56
RILRDQTWIPSMATDSILVC	-1.23 ± 0.79
TITHGYLRLRYCVR	-0.292 ± 0.44
LYSLVGCWTLCLNVSCFEWL	4.93 ± 0.064
LMVFAIRDLNFRHTILQPVP	-0.081 ± 0.42
NIGNVMRSCSKVYSLSLKQL	0.585 ± 0.31
SKCCDSSRARVASSYS	0.261 ± 0.36
RYGPAVLKSSGAAAVGHS	-0.59 ± 0.59
RCGLWV	-0.217 ± 0.78
NTRAPFLKHLNYFAYTTFII	0.123 ± 0.22
FIGAFRTTHSAGLLTDRMVL	7.851 ± 0.057
SGWIRLL	0.66 ± 0.36
RFFNTRSGKSWPLKYLTEFF	0.042 ± 0.34
YLYIRLPVITVRLDWLFGAK	0.464 ± 0.84
VLMMLNGTDVKWMESANELS	0.49 ± 0.41
QPFTWVLQKNTRT	0.714 ± 0.58
LYRVTYSNACMFGVVG	0.695 ± 0.54
VHFRYNIVTVSPQVIKFFST	5.36 ± 0.071
TLQLN	-0.59 ± 0.65
MACRSPEGLEYMKN	0.209 ± 0.46
TLDYVSYWGFTIWYAFMMVL	inactive
MLARKRMLNLLLRGWAYSWT	0.09 ± 0.49
CNFSQYMRVHHTSYLEPTDH	3.22 ± 0.12
LSMGAHSGGPLQSY	-0.205 ± 1.1

Substance	amyloid nucleation score
ITFKLNMCPILWIPCVACSN	6.57 ± 0.047
SLSQG	0.441 ± 0.93
ELRCTTWSRSPSLQVALVDL	-0.499 ± 0.59
TFGSETESMLNTKYSSGCVG	0.067 ± 0.55
YSTRPKVPFVRKVFIIGL	0.174 ± 0.43
IVETLCRYCVPRVMVTFVGQ	inactive
DNGGSAVQEDQVLAWSTGEQ	0.874 ± 0.23
WAHGLLFSYDSLHWYYICKV	0.304 ± 0.44
LNDPMAGRLNNVRSGCLDDV	-0.059 ± 0.43
HSCVPICNEYSAADRSYFRY	0.343 ± 0.97
GLEGIRIGWSSLVSMCLWRG	-0.016 ± 0.33
VKGLRSLGSTCRSLKDGITV	inactive
RHADIWSDFPR	1.53 ± 0.7
YHTSRYRCTMYMGNSHGAMP	0.228 ± 0.97
GSSTMIGMANSFVVGLDSNE	inactive
KNVYDYFWLDNCYAIDIASM	0.427 ± 0.41
RSFCRSSVIFVFP	2.79 ± 0.19
SFEWSSFTYFSNFWWLEPNT	0.738 ± 0.65
LIFNQLWWRKSMCLQVRPGQ	-1.25 ± 0.92
HCTSQ	1.71 ± 0.13
SNCVIVSQLKITDA	-0.184 ± 0.44
WFGYNIGPK	2 ± 0.28
EQCTLVVSYGVWGHRSSCVG	0.93 ± 0.45
MWGMF	-0.132 ± 0.35
REVSMRDGGPVT	0.298 ± 0.54

Substance	amyloid nucleation score
RDDDPYVQDRPLRDFVFKKY	-0.472 ± 0.35
EGSPKICPRYST	0.088 ± 0.6
IILGL	0.006 ± 0.73
IVLTHYGSVLFHSYKGYFMW	-0.197 ± 0.29
VIGVRAQYLCRHTLSVRYRK	1.67 ± 0.4
RIMMMGQLTFVYMGQHSSMV	-0.062 ± 0.57
IVVGCGCPPRINCFV	-0.444 ± 0.7
WDFDYSMCVLYMVTAIRLWR	-0.26 ± 0.54
GTGCFRCTVSTVGSVFIRDE	-0.27 ± 0.64
CLSRKSWFWHGRWESVSCHP	-0.018 ± 0.53
EDTSKVKICFSVIVYSMLNR	8.161 ± 0.045
YPLINTLDMHRLCRIYCVNE	-0.514 ± 0.54
ASRILV	-0.552 ± 0.6
GFGPS	-0.275 ± 0.38
RRVTCGLQGVLRENR	0.4 ± 0.46
DWVYITLNGLLW	-0.145 ± 0.46
FGGWVSLRSQKCMRPWRLGG	-1.22 ± 1.4
SFTVVGLKLTIVRDNNS	3.86 ± 0.12
SLGGVGRTTHNILCEADSGA	1.44 ± 0.38
WWATWRLLCIDNTACWADRW	-0.177 ± 0.53
RWGMFTWVYFMLYALWIMTL	0.042 ± 0.44
IKYFVLAWTSDPLTYVTVTS	0.953 ± 0.46
CRDNCCPLVVYW	0.531 ± 0.33
SWCHVKIVSYRVSEVR	0.228 ± 0.32
RNFCSSEGPSRHERLCNTKR	-0.542 ± 0.68

Substance	amyloid nucleation score
FFLRESNVGLAQRATMELLD	0.13 ± 1.2
LYEAMPKTLAGIWSTPNMCV	-0.507 ± 0.93
RYRDYSRRIDCLCYVSVPVY	0.564 ± 0.4
GQIIMCAARLWLGKGCVS	-0.588 ± 1
LYDFINYG	-0.592 ± 1.2
YCHCRFFDNLGCECLLR	-0.368 ± 1.9
FCISLFSHWFALW	5.72 ± 0.067
VRYMSLWGIVSRVCGIRMER	1.23 ± 0.56
TPFRDKHGGVWVV	0.505 ± 0.56
ELRLSLYLRKRRQYFRFVLK	-0.516 ± 1.7
IFQPFFAYSGKLVWPFKRDP	4.01 ± 0.081
VVISIYGMYRSFTPQLWFKA	-0.603 ± 0.68
ILCLKTDGLGDESRGVSEAG	0.27 ± 0.75
QSAAFIIDLLTVFRKMEEVM	-0.666 ± 0.66
MGTDRMCHS	0.328 ± 0.97
WVKCRDWYSILF	5.19 ± 0.089
GRAEAKLY	-0.118 ± 0.31
VLVHKDSG	-0.852 ± 0.71
WFYPWVLVWTLSCCVSRHKG	4.35 ± 0.14
THCFFYHLGKFYMSKITLAS	-1.48 ± 2.7
NNCSWIIGHRVVPTSRGE	-0.329 ± 0.45
RLHSS	-0.036 ± 0.32
YCGMKVDVVIVGRHVFRISF	0.512 ± 0.41
